Target: tetra-Cys human GAPDH (TC-hGAPDH), bacterially expressed and purified (human) (UniProt P04406)
Assay: SEC

tetra-Cys human GAPDH (TC-hGAPDH), bacterially expressed and purified (from UniProt P04406 1-335) (enzyme)
stoichiometry N: 4
